Key:
Assay in all cases: cells, lysate or membranes
[1] = substrate: CC(C)(C)NCC(O)c1cc(O)cc(O)c1; conditions: other: HEK293 stably transfected, 2 min uptake, 37 °C, pH 7.4
[2] = substrate: CC(C)(C)NCC(O)c1ccc(O)c(CO)c1; conditions: other: HEK293 stably transfected, 2 min uptake, 37 °C, pH 7.4
[3] = substrate: CC(C)(C)NCC(O)c1ccc(O)c(CO)n1; conditions: other: HEK293 stably transfected, 2 min uptake, 37 °C, pH 7.4
[4] = substrate: CC(C)NCC(O)c1cc(O)cc(O)c1; conditions: other: HEK293 stably transfected, 2 min uptake, 37 °C, pH 7.4
[5] = substrate: CC(CCc1ccc(O)cc1)NCC(O)c1ccc(O)cc1; conditions: other: HEK293 stably transfected, 2 min uptake, 37 °C, pH 7.4
Experimental: (§1) Cells were cultured in Dulbecco’s Modified Eagle’s Medium supplemented with 10% fetal bovine serum, 100 U/ml penicillin, and 100 μg/ml streptomycin at 37 °C and 5% CO2 and were passaged twice a week.
(§2) At 48 h prior to the experiment, 6 × 10^5 cells were seeded per well in 12-well plates. When using transiently transfected cells, 5 × 10^5 T-REx-293 cells (Life Technologies) were seeded per well in 12-well plates 72 h prior to the experiment, and they were transfected 24 h later as described previously. Twelve-well plates were precoated with poly-D-lysine.
(§3) Cellular uptake experiments were performed at 37 °C and pH 7.4 using HBSS supplemented with 10 mM Hepes (in the following referred to as HBSS+). Cells were washed with 1 ml prewarmed (37 °C) HBSS+, and the uptake was initiated by adding 400 μl of prewarmed HBSS+ containing the substrate. Uptake was allowed for exactly 2 min and afterward stopped by adding 2 ml ice-cold HBSS+. Cells were washed twice with 2 ml ice-cold HBSS+ and lysed with 80% acetonitrile supplemented with internal standard, 0.1 N NaOH/0.1% SDS, or radioimmunoprecipitation buffer for LC–MS/MS, liquid scintillation counting, or fluorescence spectroscopy detection, respectively. Intracellular substrate concentrations were measured as described in the following and were then normalized to the amount of total protein in the samples as measured using the bicinchoninic acid assay ([51]).
(§4) For LC–MS/MS quantification of intracellular substrate concentrations, the cell lysate was centrifuged at 16,000g for 15 min, and 350 μl of supernatant was evaporated to dryness under nitrogen flow at 40 °C. The sample was reconstituted with 200 μl 0.1% formic acid, and between 2 and 30 μl were injected into the LC–MS/MS system (Table S1).
(§5) An API4000 QTRAP tandem mass spectrometer with ESI interface (AB SCIEX) was used, coupled to a Shimadzu Nexera X2 UHPLC system with LC 30AD pumps and SiL 30AC autosampler (Shimadzu).
(§6) Intracellular concentrations of radioactively labeled substrates MPP^+ and TEA^+ were quantified using liquid scintillation counting. To this end, 400 μl cell lysate was transferred into a 20 ml scintillation vial, 9 ml Aquasafe 500 Plus liquid scintillator (both Zinsser Analytics) was added, and the sample was measured in the Scintillation Counter LS6500 (Beckman Coulter).

[6] = substrate: CC(Cc1ccc(O)cc1)NCC(O)c1cc(O)cc(O)c1; conditions: other: HEK293 stably transfected, 2 min uptake, 37 °C, pH 7.4
[7] = substrate: CC(NCCc1ccc(O)cc1)C(O)c1ccc(O)cc1; conditions: other: HEK293 stably transfected, 2 min uptake, 37 °C, pH 7.4
[8] = substrate: CNC(=C[N+](=O)[O-])NCCSCc1ccc(CN(C)C)o1; conditions: other: HEK293 stably transfected, 2 min uptake, 37 °C, pH 7.4
[9] = substrate: CNC[C@H](O)c1ccc(O)c(O)c1; conditions: other: HEK293 stably transfected, 2 min uptake, 37 °C, pH 7.4
[10] = substrate: CNS(=O)(=O)Cc1ccc2[nH]cc(CCN(C)C)c2c1; conditions: other: HEK293 stably transfected, 2 min uptake, 37 °C, pH 7.4
[11] = substrate: COc1ccc(CC(C)NCC(O)c2ccc(O)c(NC=O)c2)cc1; conditions: other: HEK293 stably transfected, 2 min uptake, 37 °C, pH 7.4
[12] = substrate: C[N+](C)(C)CCO; conditions: other: HEK293 stably transfected, 2 min uptake, 37 °C, pH 7.4
[13] = substrate: C[N+]1(CC2CC2)CC[C@]23c4c5ccc(O)c4O[C@H]2C(=O)CC[C@@]3(O)[C@H]1C5; conditions: other: HEK293 stably transfected, 2 min uptake, 37 °C, pH 7.4
Experimental: as §1, §2, §3, §4, §5, §6

[14] = substrate: NCCc1c[nH]c2ccc(O)cc12; conditions: other: HEK293 stably transfected, 2 min uptake, 37 °C, pH 7.4
[15] = substrate: NCCc1c[nH]cn1; conditions: other: HEK293 stably transfected, 2 min uptake, 37 °C, pH 7.4
[16] = substrate: NCCc1ccc(O)c(O)c1; conditions: other: HEK293 stably transfected, 2 min uptake, 37 °C, pH 7.4
[17] = substrate: NC[C@H](O)c1ccc(O)c(O)c1; conditions: other: HEK293 stably transfected, 2 min uptake, 37 °C, pH 7.4
[18] = substrate: O=C(O[C@H]1C[C@H]2CC[C@@H](C1)[N+]21CCCC1)C(O)(c1ccccc1)c1ccccc1; conditions: pH 7.4; 37.0 °C
Experimental: as §1, §2, §3, §4, §5, §6

[19] = substrate: [H]/N=C(/N)N/C(=N/[H])NCCc1ccccc1; conditions: other: HEK293 stably transfected, 2 min uptake, 37 °C, pH 7.4
Experimental: as §1, §2, §3, §4, §5, §6

B1: mouse Oct1 (Mus musculus) (protein)
chain: MPTVDDVLEHVGEFGWFQKQAFLLLCLISASLAPIYVGIVFLGFTPDHHCRSPGVAELSQRCGWSPAEELNYTVPGLGSAGEASFLSQCMKYEVDWNQSTLDCVDPLSSLAANRSHLPLSPCEHGWVYDTPGSSIVTEFNLVCGDAWKVDLFQSCVNLGFFLGSLVVGYIADRFGRKLCLLVTTLVTSLSGVLTAVAPDYTSMLLFRLLQGMVSKGSWVSGYTLITEFVGSGYRRTTAILYQVAFTVGLVGLAGVAYAIPDWRWLQLAVSLPTFLFLLYYWFVPESPRWLLSQKRTTQAVRIMEQIAQKNRKVPPADLKMMCLEEDASERRSPSFADLFRTPSLRKHTLILMYLWFSCAVLYQGLIMHVGATGANLYLDFFYSSLVEFPAAFIILVTIDRIGRIYPIAASNLVAGAACLLMIFIPHELHWLNVTLACLGRMGATIVLQMVCLVNAELYPTFIRNLGMMVCSALCDLGGIFTPFMVFRLMEVWQALPLILFGVLGLSAGAVTLLLPETKGVALPETIEEAENLGRRKSKAKENTIYLQVQTGKSPHT
B1 was tested, and the Km [1] was 60.4 ± 18.7 µM, the Vmax [1] was 0.00295 µmol/min/mg and the Vmax/Km [1] was 48.7 µL/min/mg. For the same protein, the Km [2] was 52.2 ± 7.27 µM, the Vmax [2] was 0.00197 µmol/min/mg and the Vmax/Km [2] was 38.2 µL/min/mg. The Km [3] was 26.5 ± 12.5 µM, the Vmax [3] was 0.00185 µmol/min/mg and the Vmax/Km [3] was 76.3 µL/min/mg. The Km [4] was 89.8 ± 9.34 µM, the Vmax [4] was 0.00424 µmol/min/mg and the Vmax/Km [4] was 47.6 µL/min/mg. For the same protein, the Km [5] was 2.54 ± 0.83 µM, the Vmax [5] was 0.000481 µmol/min/mg and the Vmax/Km [5] was 207 µL/min/mg. It also gave a Km [6] of 6.90 ± 0.56 µM, a Km [7] of 6.34 ± 0.89 µM and a Vmax [7] of 0.000737 µmol/min/mg. For the same protein, the Vmax/Km [7] was 116 µL/min/mg, the Km [8] was 84.4 ± 27.0 µM and the Vmax [8] was 0.0058 µmol/min/mg. The Vmax/Km [8] was 74.1 µL/min/mg, the Km [9] was 242 ± 38.6 µM and the Vmax [9] was 0.00755 µmol/min/mg. For the same protein, the Vmax/Km [9] was 31.2 µL/min/mg, the Km [10] was 65.7 ± 17.0 µM and the Vmax [10] was 0.00325 µmol/min/mg. The Vmax/Km [10] was 50.5 µL/min/mg, the Km [11] was 9.81 ± 2.26 µM and the Km [12] was 1286 ± 308 µM. The Vmax [12] was 0.0166 ± 0.0059 µmol/min/mg, the Vmax/Km [12] was 13 µL/min/mg and the Km [13] was 8.61 ± 3.12 µM. For the same protein, the Km [14] was 257 ± 53.3 µM, the Vmax [14] was 0.0162 ± 0.00276 µmol/min/mg and the Vmax/Km [14] was 63.9 µL/min/mg. The Km [15] was 497 ± 136 µM, the Vmax [15] was 0.00596 µmol/min/mg and the Vmax/Km [15] was 11.9 µL/min/mg. The Km [16] was 285 ± 3.25 µM, the Vmax [16] was 0.00171 µmol/min/mg and the Vmax/Km [16] was 6 µL/min/mg. The Km [17] was 409 ± 60.7 µM, the Vmax [17] was 0.00607 µmol/min/mg and the Vmax/Km [17] was 11.6 µL/min/mg. For the same protein, the Km [18] was 1.81 ± 1.03 µM, the Vmax [18] was 0.000163 µmol/min/mg and the Vmax/Km [18] was 102 µL/min/mg. The Km [19] was 7.53 ± 0.63 µM.

B2: human OCT1 (Homo sapiens) (protein)
chain: MPTVDDILEQVGESGWFQKQAFLILCLLSAAFAPICVGIVFLGFTPDHHCQSPGVAELSQRCGWSPAEELNYTVPGLGPAGEAFLGQCRRYEVDWNQSALSCVDPLASLATNRSHLPLGPCQDGWVYDTPGSSIVTEFNLVCADSWKLDLFQSCLNAGFLFGSLGVGYFADRFGRKLCLLGTVLVNAVSGVLMAFSPNYMSMLLFRLLQGLVSKGNWMAGYTLITEFVGSGSRRTVAIMYQMAFTVGLVALTGLAYALPHWRWLQLAVSLPTFLFLLYYWCVPESPRWLLSQKRNTEAIKIMDHIAQKNGKLPPADLKMLSLEEDVTEKLSPSFADLFRTPRLRKRTFILMYLWFTDSVLYQGLILHMGATSGNLYLDFLYSALVEIPGAFIALITIDRVGRIYPMAMSNLLAGAACLVMIFISPDLHWLNIIIMCVGRMGITIAIQMICLVNAELYPTFVRNLGVMVCSSLCDIGGIITPFIVFRLREVWQALPLILFAVLGLLAAGVTLLLPETKGVALPETMKDAENLGRKAKPKENTIYLKVQTSEPSGT
With B2 the Km [1] was 197 ± 54.1 µM, the Vmax [1] was 0.0008 µmol/min/mg and the Vmax/Km [1] was 3.81 µL/min/mg. The Km [2] was 395 ± 56.8 µM, the Vmax [2] was 0.00138 µmol/min/mg and the Vmax/Km [2] was 3.55 µL/min/mg. For the same protein, the Km [3] was 29.2 ± 12.2 µM, the Vmax [3] was 0.00202 µmol/min/mg and the Vmax/Km [3] was 73.5 µL/min/mg. It also gave a Km [4] of 530 ± 44.9 µM, a Vmax [4] of 0.0016 µmol/min/mg and a Vmax/Km [4] of 3.03 µL/min/mg. For the same protein, the Km [5] was 2.17 ± 0.59 µM, the Vmax [5] was 0.000336 µmol/min/mg and the Vmax/Km [5] was 162 µL/min/mg. The Km [6] was 0.87 ± 0.19 µM, the Km [7] was 0.68 ± 0.12 µM and the Vmax [7] was 0.000153 µmol/min/mg. It also gave a Vmax/Km [7] of 226 µL/min/mg, a Km [8] of 55.7 ± 4.63 µM and a Vmax [8] of 0.00409 µmol/min/mg. The Vmax/Km [8] was 75 µL/min/mg, the Km [9] was 558 ± 411 µM and the Vmax [9] was 0.00112 µmol/min/mg. The Vmax/Km [9] was 2.69 µL/min/mg, the Km [10] was 65.9 ± 15.1 µM and the Vmax [10] was 0.00418 µmol/min/mg. It also gave a Vmax/Km [10] of 63.6 µL/min/mg, a Km [11] of 13.2 ± 3.71 µM and a Km [14] of 663 ± 334 µM. The Vmax [14] was 0.00618 µmol/min/mg, the Vmax/Km [14] was 10 µL/min/mg and the Km [15] was 4675 ± 2319 µM. It also gave a Vmax [15] of 0.00512 µmol/min/mg, a Vmax/Km [15] of 1.27 µL/min/mg and a Km [16] of 674 ± 194 µM. It also gave a Vmax [16] of 0.000718 µmol/min/mg, a Vmax/Km [16] of 1.04 µL/min/mg and a Km [18] of 17.0 ± 5.46 µM. The Vmax [18] was 0.00141 µmol/min/mg, the Vmax/Km [18] was 86.7 µL/min/mg and the Km [19] was 18.7 ± 2.64 µM.

Reference: PMC9130538, “Amino acids in transmembrane helix 1 confer major functional differences between human and mouse orthologs of the polyspecific membrane transporter OCT1” (The Journal of Biological Chemistry, 2022)
